Laboratory results: paper PMC8000724, “Trans-Epithelial Transport, Metabolism, and Biological Activity Assessment of the Multi-Target Lupin Peptide [sequence] (P5) and Its Metabolite [sequence] (P5-Met)” (Nutrients, 2021)

Legend:
[1] = target: T1, proprotein convertase subtilisin/kexin type-9 (PCSK9), His-tagged (UniProt Q8NBP7 31-692); experiment: ELISA; CircuLex in vitro PCSK9-LDLR binding assay kit; plate pre-coated with recombinant LDLR-AB domain; peptide (0.1-100 uM) in reaction buffer, then His-tagged PCSK9 added; 2 h at room temperature; detected with biotinylated anti-His-tag antibody, HRP-streptavidin and TMB, absorbance at 450 nm; details: both partners purified
T1 construct: PCSK9, recombinant His-tagged protein of the kit; The functional rows use this molecule; also called His-tagged PCSK9
T1 sequence (Q8NBP7 31-692): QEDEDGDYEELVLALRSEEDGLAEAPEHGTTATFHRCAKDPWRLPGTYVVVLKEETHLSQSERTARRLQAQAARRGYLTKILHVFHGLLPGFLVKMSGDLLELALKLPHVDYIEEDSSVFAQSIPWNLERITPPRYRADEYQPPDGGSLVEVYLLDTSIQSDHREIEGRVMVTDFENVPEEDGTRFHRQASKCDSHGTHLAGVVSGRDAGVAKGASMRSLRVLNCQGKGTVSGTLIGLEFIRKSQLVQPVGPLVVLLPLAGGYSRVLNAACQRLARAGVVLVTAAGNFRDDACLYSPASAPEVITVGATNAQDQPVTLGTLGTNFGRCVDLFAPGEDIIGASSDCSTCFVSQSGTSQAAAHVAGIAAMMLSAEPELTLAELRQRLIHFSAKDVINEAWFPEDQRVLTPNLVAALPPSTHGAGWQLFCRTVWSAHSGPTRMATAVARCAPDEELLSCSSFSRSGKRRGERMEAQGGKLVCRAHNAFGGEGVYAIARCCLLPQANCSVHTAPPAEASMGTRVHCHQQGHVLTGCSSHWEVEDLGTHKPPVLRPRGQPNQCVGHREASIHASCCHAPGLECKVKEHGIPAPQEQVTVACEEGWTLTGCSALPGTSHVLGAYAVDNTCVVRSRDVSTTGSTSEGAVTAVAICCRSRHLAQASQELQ

[2] = target: 3-hydroxy-3-methylglutaryl coenzyme A reductase (HMGCoAR), catalytic domain; experiment: cell-based or functional assay
Chain of 3-hydroxy-3-methylglutaryl coenzyme A reductase (HMGCoAR), catalytic domain (P04035 whole entry, the tested form may be a part): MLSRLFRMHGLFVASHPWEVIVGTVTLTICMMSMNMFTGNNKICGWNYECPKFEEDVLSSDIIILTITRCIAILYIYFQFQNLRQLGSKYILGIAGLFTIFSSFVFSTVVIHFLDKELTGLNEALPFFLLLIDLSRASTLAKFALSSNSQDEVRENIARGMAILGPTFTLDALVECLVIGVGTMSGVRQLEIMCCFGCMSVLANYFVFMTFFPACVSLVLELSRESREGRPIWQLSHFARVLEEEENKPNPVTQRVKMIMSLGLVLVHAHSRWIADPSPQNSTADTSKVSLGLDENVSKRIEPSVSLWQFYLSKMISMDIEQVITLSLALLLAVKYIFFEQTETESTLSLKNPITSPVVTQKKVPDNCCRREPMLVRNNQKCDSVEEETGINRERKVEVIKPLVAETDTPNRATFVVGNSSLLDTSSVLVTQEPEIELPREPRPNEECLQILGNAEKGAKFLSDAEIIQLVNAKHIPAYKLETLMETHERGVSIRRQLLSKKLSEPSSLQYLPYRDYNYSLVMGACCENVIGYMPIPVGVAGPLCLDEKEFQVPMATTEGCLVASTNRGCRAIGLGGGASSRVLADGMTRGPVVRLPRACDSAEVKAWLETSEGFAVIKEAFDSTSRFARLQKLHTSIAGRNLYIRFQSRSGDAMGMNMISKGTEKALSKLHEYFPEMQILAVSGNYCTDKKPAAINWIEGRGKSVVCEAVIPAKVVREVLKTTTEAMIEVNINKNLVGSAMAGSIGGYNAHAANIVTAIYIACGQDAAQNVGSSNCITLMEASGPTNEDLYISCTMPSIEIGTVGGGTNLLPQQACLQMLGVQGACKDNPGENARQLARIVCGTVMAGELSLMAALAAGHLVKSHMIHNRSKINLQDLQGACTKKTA

B1: P5-met (LPKHSDAD), metabolite of lupin peptide P5 (peptide)
peptide: LPKHSDAD
notes: source: synthetic peptide (GeneScript, >95% purity)
- IC50 [1]: 1700 nM
- in vitro HMGCoAR activity (NADPH oxidation, absorbance at 340 nm, 37 °C), peptide 10-500 µM; IC50 [2]: 175 µM

B2: lupin peptide P5 (LILPKHSDAD) (peptide)
peptide: LILPKHSDAD
notes: peptide from the peptic hydrolysate of lupin protein; also called parent peptide; source: synthetic peptide (GeneScript, >95% purity)
- IC50 [1]: 1300 nM
- in vitro HMGCoAR activity (NADPH oxidation, absorbance at 340 nm, 37 °C), peptide 10-500 µM; IC50 [2]: 147 µM
